Reference: PMC4747905, “Structure of BRCA1-BRCT/Abraxas Complex Reveals Phosphorylation-Dependent BRCT Dimerization at DNA Damage Sites” (Molecular Cell, 2016)
One block for each binder: values may come before it. Square brackets hold non-standard residues; d marks the D form. Ends that are not written are not given here. pS = N[C@@H](COP(=O)(O)O)C(=O)O

Tests used:
BRCA1 BRCT domains [1] = target: T1, BRCA1 BRCT domains (UniProt P38398 1646-1859); experiment: native MS; peak fractions from gel filtration, 15 μM protein, 300 mM ammonium acetate pH 7.6, nano-electrospray; conditions: both partners purified
T1 construct: BRCA1 tandem BRCT domains (BRCT1 and BRCT2); construct limits are in the Supplemental Information; also called BRCT domain only; source: purified; construction and purification are described in the Supplemental Information

BRCA1 BRCT domains [2] = target: T1, BRCA1 BRCT domains; experiment: SEC; BRCT and peptide mixed 1:3 (molar), final 1 mg/ml (about 40 μM), Superdex 75 10/300, Buffer A, 0.5 ml/min; conditions: both partners purified
[3] = target: the molecule itself; experiment: as above

B1: Abraxas single phosphorylated peptide Ab1p (peptide)
peptide: GFGEYSR[pS]PTF
notes: Abraxas C-terminal peptide, printed as GFGEYSRpSPTF; source: synthesized peptide
stoichiometry N (BRCA1 BRCT domains [1]): 1

B4: Abraxas peptide Ab2p (F400D) (peptide, UniProt Q6UWZ7 399-409, looked up)
peptide: GDGEY[pS]R[pS]PTF
notes: Abraxas C-terminal peptide, as Ab2p (GFGEYpSRpSPTF) with F400D
binding result (BRCA1 BRCT domains [2]): binds

B6: Abraxas peptide Ab2p(Y403A) (peptide, UniProt Q6UWZ7 399-409, looked up)
peptide: GFGEA[pS]R[pS]PTF
notes: Abraxas C-terminal peptide, as Ab2p (GFGEYpSRpSPTF) with Y403A
binding result (BRCA1 BRCT domains [2]): binds

B7: Abraxas double phosphorylated peptide Ab2p_short (peptide)
peptide: Y[pS]R[pS]PTF
notes: Abraxas C-terminal peptide without GFGE, printed as YpSRpSPTF; source: synthesized peptide
binding result (BRCA1 BRCT domains [2]): binds

B8: BRCT-Ab2p_short complex (complex)
chain: VNKRMSMVVSGLTPEEFMLVYKFARKHHITLTNLITEETTHVVMKTDAEFVCERTLKYFLGIAGGKWVVSYFWVTQSIKERKMLNEHDFEVRGDVVNGRNHQGPKRARESQDRKIFRGLEICCYGPFTNMPTDQLEWMVQLCGASVVKELSSFTLGTGVHPIVVVQPDAWTEDNGFHAIGQMCEAPVVTREWVLDSVALYQCQELDTYLIPQIP
peptide: YSRSPTF
modifications: phosphoserine at S404 and S406
notes: as m1: BRCA1 tandem BRCT domains; limits in the Supplemental Information; as m5: Abraxas C-terminal peptide YpSRpSPTF; the 1:1 unit of m1 and m5; source: purified BRCT mixed with peptide at 1:3 molar ratio
binding result [3]: binds

More lines, now with the values ahead:

stoichiometry N (BRCA1 BRCT domains [1]): 1
Binder: ISRST[pS]PTFNKQTK [Bach1 phosphopeptide]

binding result (BRCA1 BRCT domains [2]): binds
B2: Abraxas peptide Ab1p (S404P) (peptide, UniProt Q6UWZ7 399-409, looked up)
peptide: GFGEYPR[pS]PTF
notes: Abraxas C-terminal peptide, as Ab1p (GFGEYSRpSPTF) with S404P

binding result (BRCA1 BRCT domains [2]): binds
B3: Abraxas peptide Ab2p(E402R) (peptide, UniProt Q6UWZ7 399-409, looked up)
peptide: GFGRY[pS]R[pS]PTF
notes: Abraxas C-terminal peptide, as Ab2p (GFGEYpSRpSPTF) with E402R

binding result (BRCA1 BRCT domains [2]): binds
B5: Abraxas peptide Ab1p (S404D) (peptide, UniProt Q6UWZ7 399-409, looked up)
peptide: GFGEYDR[pS]PTF
notes: Abraxas C-terminal peptide, as Ab1p (GFGEYSRpSPTF) with the phosphomimetic S404D

binding result (BRCA1 BRCT domains [2]): binds
Binder: A[pS]R[pS]PTF (peptide, UniProt Q6UWZ7 403-409, looked up, also called Abraxas(Y403A)_short) [Abraxas peptide Ab2p(Y403A_short)]

stoichiometry N (BRCA1 BRCT domains [1]): 1
Binder: PTRVS[pS]PVFGAT [CtIP phosphopeptide]
